B1: PSP-94: prostate secretory protein of 94 amino acids; native human seminal plasma PSP-94 (protein)
chain: SCYFIPNEGVPGDSTRKCMDLKGNKHPINSEWQTDNCETCTCYETEISCCTLVSTPVGYDKDNCQRIFKKEDCKYIVVEKKDPKKTCSVSEWII

Assays:
PTHrP [1] = assay: Plasma PTHrP radioimmunoassay in tumor bearing animals; assay type: in vivo, male Copenhagen rats
Procedure: Control animals received PBS alone as vehicle control.
Other Analytical Methods. Plasma calcium levels were determined by atomic absorption spectrophotometry (model 703, Perkin-Elmer, Norwalk, Conn.). For plasma PTHrP, all samples were tested in two dilutions in PTHrP radio-immunoassay (R.I.A.) kit (Nichols Institute Diagnostics, San Juan Capistrano, Calif.) according to manufacturer's instructions.
Comparison was made between plasma collected from normal, non-tumor bearing animals (N), control tumor bearing animals receiving vehicle alone (CTL) and plasma collected from experimental animals receiving different doses of PSP-94 (0.1-10.0 ug/kg/day). Plasma calcium levels were determined by atomic absorption spectrophotometry (model 703, Perkin-Elmer, Norwalk, Conn.). For plasma PTHrP, all samples were tested in two dilutions in PTHrP R.I.A. kit (Nichols Institute Diagnostics, San Juan Capistrano, Calif.) according to manufacturers instructions.
FIGS. 10A and 10B show male Copenhagen rats inoculated s.c. with 10^6 Mat Ly Lu-PTHrP cells. Following 3 days of tumor cell inoculation, animals were treated with vehicle alone (Ctl) or different doses (1.0, or 10.0 ug/kg/day) of PSP-94 for 18 days. Animals were sacrificed on day 21 and plasma PTHrP (FIG. 10A; expressed in picomole equivalents/liter) or plasma calcium (FIG. 10B; expressed in millimolar (mM)) levels were determined. Results for non-tumor bearing animals are also shown (N).
Comparison was made between plasma collected from normal, non-tumor bearing animals, control tumor bearing animals receiving vehicle alone and experimental animals receiving different doses of PCK3145 (1.0-100.0 ug/kg/day). […] Plasma PTHrP levels in normal non-tumor bearing animals are also shown (N).

PTHrP [2] = assay: Tumoral PTHrP production by immunohistochemistry of primary tumors; assay type: in vivo, male Copenhagen rats
Procedure: Histologic Analysis. For immunohistological analysis, primary tumor samples were dewaxed by heating at 60° C. and rehydrated in a graded alcohol series (100%-70%). Anti-rat antibody against PTHrP was used as the primary antibody. Tumor sections were incubated overnight at 4° C. followed by further incubation with biotinylated universal antibody (Vector Laboratories, Burlingame, Calif.) for 45-60 minutes. Sections were rinsed with TBST (Tris buffered saline-Tween) followed by incubation with Vectastain ABC-AP Reagent (Vector Laboratories, Burlingame, Calif.) for 30 minutes. These sections were again washed with TBST and incubated with a Napthol AS-Mix Phosphate/Fast Red solution (Sigma-Aldriche, Oakville, ON). The sections were finally counterstained with Methyl Green (Vector Laboratories, Burlingame, Calif.) and mounted.
Alternatively, paraffin embedded tumor samples were cut into 5 um-thick sections for immunohistochemical analysis. […]
Tumors from control group treated with vehicle alone and experimental groups treated with different doses of PSP-94 (0.1-10.0 μg/kg/day) were excised, paraffin embedded, and sectioned and analyzed for tumoral PTHrP production by immunohistochemical reaction specific for PTHrP using method described herein. […] Three animals were present in each group and three tumor sections were analyzed for each animal by evaluating at least ten random fields of observation.
Primary tumors from control vehicle treated animals and animals treated with the highest dose of PCK3145 (100.0 ug/kg/day) were removed, paraffin embedded, and sectioned. […] Therefore, tumors from control group treated with vehicle alone and experimental group treated with the highest dose of PCK3145 (100.0 ug/kg/day) were excised and analyzed for tumoral PTHrP production by immunohistochemical analysis. […] No reaction was seen when these tumors were evaluated for background reaction in the absence of PTHrP antibody (NC).

Mat Ly Lu-PTHrP cells = assay: Cell morphology of treated Mat Ly Lu-PTHrP cells; assay type: cell-based, rat
Procedure: Cell morphology. Morphological analysis of control and experimental Mat Ly Lu-PTHrP cells treated with PSP-94 or PCK3145 was carried out by plating 5×10^4 cells/ well in 6-well plates (Falcon Plastics, Oxnard, Calif.) in the presence of 10% FBS.
Mat Ly Lu cells transfected with vector alone (CMV) or vector expressing PTHrP were seeded at a density of 5×10^3 cells/well in 6-well plates. Mat Ly Lu-PTHrP cells were treated with PSP-94 and were trypsinized and counted using a coulter counter as described herein. Change in cell number following treatment with 10.0 ug/ml of PSP-94 for 72 hrs is illustrated in FIG. 1.
Mat Ly Lu-PTHrP cells were seeded at a density of 5×10^3 cells/well in 6-well plates and treated with different doses (1.0-100.0 ug/ml) of PCK3145 for up to 5 days and were trypsinized and counted using a coulter counter as described herein.

[3] = Animal weight and side-effect monitoring in tumor-bearing rats; conditions: for cytotoxic effects: overall conclusion of the study
Procedure: Also, alternatively, cell pellets (5×10^5 cells) were resuspended in 100 ul saline and injected using 1 ml syringes into the right flank of rats as described herein. From the time of tumor cell inoculation, experimental animals were treated with different doses (0.1, 1.0, 10.0, or 100.0 ug/kg/day) of PSP-94 or PCK3145 (SEQ ID NO.:5) via S.C. injections for 15 consecutive days. Control animals received PBS alone as vehicle control. All animals were numbered, kept separately and monitored daily for the development of tumors. […] All control and experimental animals were weighed every alternate day to determine any adverse effect of PSP-94 or PCK3145. Both control and experimental animals were sacrificed at day 16 post tumor cell inoculation and their tumors were removed and weighed.
During the study, both control and experimental animals were monitored for any noticeable side effects and cachexia resulting in weight loss. […] Starting on the time of tumor cell inoculation animals were infused with different doses of PSP-94 for fifteen consecutive days as described herein. All animals were weighed at timed intervals and comparison was made with that of tumor bearing animals receiving vehicle alone as control (CTL).
Male Copenhagen rats were inoculated with 1×10^6 Mat Ly Lu-PTHrP cells via S.C. route of injection into the right flank. Animals were infused daily via S.C. route, below the site of tumor cell inoculation, with different doses (1.0-100.0 ug/kg/day) of PCK3145 starting from the day of tumor cell inoculation and lasting for 15 days. […] Animals were also weighed to determine any side effects of administering PCK3145. […] In order to determine the effect of PCK3145 on tumor weight, control animals and experimental animals receiving PCK3145 were sacrificed at the end of the study (day 16) and their tumors excised and weighed.

Molecule	plasma PTHrP levels (PTHrP [1]; PCK3145 1.0-100.0 ug/kg/day, day 16, vs vehicle)	tumoral PTHrP production (PTHrP immuno-staining) (PTHrP [2]; 100.0 ug/kg PCK3145, relative to lower doses)	tumoral PTHrP production (PTHrP immuno-staining) (PTHrP [2]; different doses of PCK3145 (data not shown), vs vehicle)	cell morphology (Mat Ly Lu-PTHrP cells; 100.0 ug/ml PCK3145 (data not shown))	animal weight ([3]; PCK3145 1.0-100.0 ug/kg/day S.C. for 15 days)	cytotoxic effects [3]	plasma PTHrP levels (PTHrP [1]; 10.0 ug/kg/day PSP-94)	plasma PTHrP levels (PTHrP [1]; PSP-94 0.1-10.0 ug/kg/day, day 16, vs vehicle)	tumoral PTHrP production (PTHrP immunostaining) (PTHrP [2]; PSP-94 0.1-10.0 ug/kg/day, vs vehicle)	tumor cell morphology (Mat Ly Lu-PTHrP cells; 10.0 ug/ml PSP-94 for 3 days (data not shown))	side effects or weight loss of experimental animals ([3]; different doses of PSP-94, S.C. tumor model)	animal weight ([3]; different doses of PSP-94 for fifteen consecutive days, vs vehicle)
E W Q T D N C E T C T C Y E T (EWQTDNCETCTCYET; PCK3145 (polypeptide 31-45))	dose-dependent decrease	most pronounced	dose dependent decrease	changed their morphology from a more spindle-like appearance to a more circular and condensed shape	No significant difference	without manifesting any noticeable cytotoxic effects						
B1						without manifesting any noticeable cytotoxic effects	near normalization	dose-dependent decrease	same dose-dependent decrease	noticeable change in tumor cell morphology	not associated with any noticeable side effects or weight loss	No significant change

— patent US20050026833A1, “PSP-94: use for treatment of hypercalcemia and bone metastasis” (priority 2001, published 2005)
